Laboratory results reported in PMC9483561.

Target: integrin α5β1 headpiece (α5 F1–L609/β1 Q1–E481) (UniProt P05556)
Experiment: fluorescence polarisation

Kd | Substance
30 nM | fibronectin fragment Fn7–10 (P1142–T1509) (from UniProt P02751-1 1173-1540) (domain or fragment)
30 nM | fibronectin fragment Fn9–10 (G1326–T1509) (from UniProt P02751-1 1357-1540) (domain or fragment)
